What all share (assay): cell-based or functional assay
Test [1] has as its target XGEVA (Amgen), human IgG2.
Test [2] has as its target Humira (Abbvie), human IgG1.
Test [3] concerns the target XGEVA (Amgen), human IgG2. The source holds these as a separate data set.
In test [4] the target is Humira (Abbvie), human IgG1. The source holds these as a separate data set.
For test [5], the target named is human IgG3 from Sigma (15654 Lot #SLBW0899) (human).
Test [6] has as its target human IgG4 from Abcam (ab90286 Lot #GR3180469) (human).

B1: pCART207, a variant IdeZ polypeptide (enzyme)
chain: MDDYQRNATEAYAKEVPHQITSVWTKGVTPPEQFTQGEDVIHAPYLAHQGWYDITKAFDGKDNLLCGAATAGNMLHWWFDQNKTEIEAYLSKHPEKQKIIFRNQELFDLKAAIDTKDSQTNSQLFNYFRDKAFPNLSARQLGVMPDLVLDMFINGYYLNVFKTQSTDVNRPYQDKDKRGGIFDAVFTRGDQTTLLTARHDLKNKGLNDISTIIKQELTEGRALALSHTYANVSISHVINLWGADFNAEGNLEAIYVTDSDANASIGMKKYFVGINAHGHVAISAKKIEGENIGAQVLGLFTLSSGKDIWQKLS
Turning to B1, in test [1], the “Approximate EC50 value, i.e. equal amounts of scIgG and F(ab')2 (SDS-PAGE)” value (shortened to “Approximate EC50 value”) was around 1.1 µg/mL; the “Conc. of enzyme for cleavage of 1st IgG2 heavy chain, IgG to scIgG (SDS-PAGE)” value was around 40 ng/mL; the “Conc. of enzyme for cleavage of 2nd IgG2 heavy chain, scIgG to F(ab)2 (SDS-PAGE)” value (shortened to “Conc. of enzyme … to F(ab)2 (SDS-PAGE)”) is around 3300 ng/mL. Further, in test [2], the “Approximate EC50 value” value was around 0.04 µg/mL; the “Conc. of enzyme for cleavage of 1st IgG1 heavy chain, IgG to scIgG (SDS-PAGE)” value is around 1.5 ng/mL; the “Conc. of enzyme for cleavage of 2nd IgG1 heavy chain, scIgG to F(ab')2 (SDS-PAGE)” value (“Conc. of enzyme … to F(ab')2 (SDS-PAGE)” below) was around 120 ng/mL.

B2: N240, a variant IdeZ polypeptide of the invention (enzyme)
chain: MDDYQRNATEAYAKEVPHQITSVWTKGVTPPEQFTQGEDVIHAPYLAHQGWYDITKAFNGKDDLLCGAATAGNMLHWWFDQNKTEIEAYLSKHPEKQKIIFRNQELFDLKAAIDTKDSQTNSQLFNYFRDKAFPNLSARQLGVMPDLVLDMFINGYYLNVFKTQSTDVNRPYQDKDKRGGIFDAVFTRGNQTTLLTARHDLKNKGLNDISTIIKQELTEGRALALSHTYANVSISHVINLWGADFNAEGNLEAIYVTDSDANASIGMKKYFVGINAHGHVAISAKKIEGENIGAQVLGLFTLSSGKDIWQKLS
As for B2, in test [3], the “IgG2 EC50 F(ab')2 (SDS-PAGE, visual estimate)” value was 0.12 µg/mL and the “IgG2 EC50 scIgG (SDS-PAGE, visual estimate)” value is 0.0046 µg/mL. In addition, in test [4], the “IgG1 EC50 F(ab')2 (SDS-PAGE, visual estimate)” value is 0.014 µg/mL and the “IgG1 EC50 scIgG (SDS-PAGE, visual estimate)” value was 0.0005 µg/mL. Also, in test [5], the “IgG3 EC50 F(ab')2 (SDS-PAGE, visual estimate)” value was 0.015 µg/mL and the “IgG3 EC50 scIgG (SDS-PAGE, visual estimate)” value was 0.007 µg/mL. For the same molecule, in test [6], the “IgG4 EC50 F(ab')2 (SDS-PAGE, visual estimate)” value was 0.062 µg/mL and the “IgG4 EC50 scIgG (SDS-PAGE, visual estimate)” value is 0.002 µg/mL.

B3: pCART229, a variant IdeZ polypeptide (enzyme)
chain: MDDYQRNATEAYAKEVPHQITSVWTKGVTPPEQFTQGEDVIHAPYLAHQGWYDITKAFDGKDNLLCGAATAGNMLHWWFDQNKTEIEAYLSKHPEKQKIIFRNQELFDLKAAIDTKDSQTNSQLFNYFRDKAFPNLSARQLGVMPDLVLDMFINGYYLNVFKTQSTDVNRPYQDKDKRGGIFDAVFTRGNQTTLLTARHDLKNKGLNDISTIIKQELTEGRALALSHTYANVSISHVINLWGADFNAEGNLEAIYVTDSDANASIGMKKYFVGINAHGHVAISAKKIEGENIGAQVLGLFTLSSGKDIWQKLS
Regarding B3, in test [1], the “Approximate EC50 value” value was around 1.1 µg/mL; the “Conc. of enzyme for cleavage of 1st IgG2 heavy chain, IgG to scIgG (SDS-PAGE)” value was around 40 ng/mL; the “Conc. of enzyme … to F(ab)2 (SDS-PAGE)” value was around 3300 ng/mL. In test [2], the “Approximate EC50 value” value is around 0.04 µg/mL; the “Conc. of enzyme for cleavage of 1st IgG1 heavy chain, IgG to scIgG (SDS-PAGE)” value is around 1.5 ng/mL; the “Conc. of enzyme … to F(ab')2 (SDS-PAGE)” value is around 120 ng/mL.

B4: pCART242, a variant IdeZ polypeptide of the invention (enzyme)
chain: MSVWTKGVTPPEQFTQGEDVIHAPYLAHQGWYDITKAFNGKDDLLCGAATAGNMLHWWFDQNKTEIEAYLSKHPEKQKIIFRNQELFDLKAAIDTKDSQTNSQLFNYFRDKAFPNLSARQLGVMPDLVLDMFINGYYLNVFKTQSTDVNRPYQDKDKRGGIFDAVFTRGNQTTLLTARHDLKNKGLNDISTIIKQELTEGRALALSHTYANVSISHVINLWGADFNAEGNLEAIYVTDSDANASIGMKKYFVGINAHGHVAISAKKIEGENIGAQVLGLFTLSSGKDIWQKLSGGGHHHHHH
On to B4, for which, in test [1], the “Conc. of enzyme for cleavage of 1st IgG2 heavy chain, IgG to scIgG (SDS-PAGE)” value is around 10 ng/mL and the “Conc. of enzyme … to F(ab)2 (SDS-PAGE)” value is around 400 ng/mL. In addition, in test [2], the “Conc. of enzyme for cleavage of 1st IgG1 heavy chain, IgG to scIgG (SDS-PAGE)” value is around 1.5 ng/mL and the “Conc. of enzyme … to F(ab')2 (SDS-PAGE)” value is around 40 ng/mL.

The values are drawn from patent US20260028608A1 (HANSA BIOPHARMA, published 2026).
